How the values were obtained:
[1] = biological target: HLA-B*53:01; assay: IEDB peptide-MHC binding, purified MHC/competitive/radioactivity; filed as Kd, often an IC50 or EC50 that approximates it; ≥ and ≤ were set here for values at or beyond the usual limits of such assays
[2] = biological target: HLA-B*57:01; assay: as above
[3] = biological target: HLA-B*58:01; assay: as above
[4] = biological target: HLA-A*02:01; assay: IEDB peptide-MHC binding, purified MHC/competitive/fluorescence; filed as Kd, often an IC50 or EC50 that approximates it; ≥ and ≤ were set here for values at or beyond the usual limits of such assays; conditions: source organism: Cryptosporidium parvum Iowa II
[5] = biological target: HLA-A*02:03; assay: as above; conditions: source organism: Cryptosporidium parvum Iowa II
[6] = biological target: HLA-A*02:11; assay: as above; conditions: source organism: Cryptosporidium parvum Iowa II
[7] = biological target: HLA-A*03:01; assay: as above; conditions: source organism: Cryptosporidium parvum Iowa II
[8] = biological target: HLA-A*26:01; assay: as above; conditions: source organism: Cryptosporidium parvum Iowa II
[9] = biological target: HLA-B*15:01; assay: as above; conditions: source organism: Cryptosporidium parvum Iowa II
[10] = biological target: HLA-B*18:01; assay: as above; conditions: source organism: Cryptosporidium parvum Iowa II
[11] = biological target: HLA-B*46:01; assay: as above
[12] = biological target: HLA-B*51:01; assay: as above
[13] = biological target: HLA-B*57:01; assay: as above; conditions: source organism: Cryptosporidium parvum Iowa II
[14] = biological target: HLA-A*01:01; assay: IEDB peptide-MHC binding, purified MHC/direct/fluorescence; filed as Kd, often an IC50 or EC50 that approximates it; ≥ and ≤ were set here for values at or beyond the usual limits of such assays
[15] = biological target: HLA-A*02:01; assay: as above
[16] = biological target: HLA-A*03:01; assay: as above
[17] = biological target: HLA-A*11:01; assay: as above
[18] = biological target: HLA-A*26:01; assay: as above; conditions: source organism: Giardia lamblia ATCC 50803
[19] = biological target: HLA-A*31:01; assay: as above
[20] = biological target: HLA-A*69:01; assay: as above; conditions: source organism: Giardia lamblia ATCC 50803
[21] = biological target: HLA-B*07:02; assay: as above
[22] = biological target: HLA-B*08:01; assay: as above; conditions: source organism: Giardia lamblia ATCC 50803
[23] = biological target: HLA-B*15:01; assay: as above
[24] = biological target: HLA-B*27:05; assay: as above
[25] = biological target: HLA-B*39:01; assay: as above
[26] = biological target: HLA-B*40:01; assay: as above; conditions: source organism: Giardia lamblia ATCC 50803
[27] = biological target: HLA-B*44:02; assay: as above
[28] = biological target: HLA-B*58:01; assay: as above
[29] = biological target: HLA-B*07:02; assay: IEDB peptide-MHC binding, purified MHC/competitive/fluorescence; ≥ and ≤ were set here for values at or beyond the usual limits of such assays
[30] = biological target: HLA-B*15:17; assay: IEDB peptide-MHC binding, purified MHC/direct/fluorescence; filed as Kd, often an IC50 or EC50 that approximates it; ≥ and ≤ were set here for values at or beyond the usual limits of such assays
[31] = biological target: HLA-B*57:01; assay: as above
[32] = biological target: HLA-C*12:03; assay: as above
[33] = biological target: HLA-B*46:01; assay: as above; conditions: source organism: Mammarenavirus lassaense
[34] = biological target: HLA-B*48:01; assay: as above; conditions: source organism: Mammarenavirus lassaense
[35] = biological target: HLA-A*01:01; assay: IEDB peptide-MHC binding, purified MHC/competitive/radioactivity; filed as Kd, often an IC50 or EC50 that approximates it; ≥ and ≤ were set here for values at or beyond the usual limits of such assays
[36] = biological target: HLA-A*23:01; assay: as above; conditions: source organism: Dengue virus 1 Singapore/S275/1990
[37] = biological target: HLA-A*24:02; assay: as above; conditions: source organism: Dengue virus 1 Singapore/S275/1990
[38] = biological target: HLA-A*26:01; assay: as above; conditions: source organism: Dengue virus 1 Singapore/S275/1990
[39] = biological target: HLA-B*15:42; assay: IEDB peptide-MHC binding, purified MHC/competitive/fluorescence; filed as Kd, often an IC50 or EC50 that approximates it; ≥ and ≤ were set here for values at or beyond the usual limits of such assays; conditions: source organism: Yellow fever virus
[40] = biological target: HLA-B*45:06; assay: as above; conditions: source organism: Yellow fever virus
[41] = biological target: HLA-B*83:01; assay: as above; conditions: source organism: Yellow fever virus
[42] = biological target: HLA-B*27:03; assay: as above; conditions: source organism: Tetraodon nigroviridis
[43] = biological target: HLA-B*39:01; assay: as above; conditions: source organism: Tetraodon nigroviridis
[44] = source organism: Dengue virus 3 Sri Lanka/1266/2000
[45] = source organism: Dengue virus 4 Philippines/H241/1956
[46] = source organism: Cryptosporidium parvum Iowa II
[47] = source organism: Giardia lamblia ATCC 50803
[48] = source organism: Mycobacterium tuberculosis
[49] = source organism: Mammarenavirus lassaense
[50] = source organism: Dengue virus 1 Brazil/97-11/1997
[51] = source organism: Dengue virus 1 Singapore/S275/1990
[52] = source organism: Dengue virus 3 Martinique/1243/1999
[53] = source organism: Cryptosporidium parvum
[54] = source organism: Tetraodon nigroviridis

## AAVEDEEFW
[1]; [44]
  Kd: 0.0107 µM
[2]; [44]
  Kd: 1.1 µM
[3]; [44]
  Kd: 0.00441 µM

## ILIGFLVLW
[2]; [45]
  Kd: 1.25 µM
[3]; [45]
  Kd: 0.403 µM

## ERTDLFFPV
[4]
  Kd: ≥ 20 µM
[5]
  Kd: ≥ 20 µM
[6]
  Kd: 2.82 µM
[7]
  Kd: ≥ 20 µM
[8]
  Kd: ≥ 20 µM
[9]
  Kd: ≥ 20 µM
[10]
  Kd: ≥ 20 µM
[11]; [46]
  Kd: ≥ 20 µM
[12]; [46]
  Kd: ≥ 20 µM
[13]
  Kd: ≥ 20 µM

## SHSIPNGLL
[14]; [47]
  Kd: ≥ 20 µM
[15]; [47]
  Kd: ≥ 20 µM
[16]; [47]
  Kd: ≥ 20 µM
[17]; [47]
  Kd: ≥ 20 µM
[18]
  Kd: ≥ 20 µM
[19]; [47]
  Kd: ≥ 20 µM
[20]
  Kd: ≥ 20 µM
[21]; [47]
  Kd: ≥ 20 µM
[22]
  Kd: ≥ 20 µM
[23]; [47]
  Kd: ≥ 20 µM
[24]; [47]
  Kd: ≥ 20 µM
[25]; [47]
  Kd: 0.353 µM
[26]
  Kd: ≥ 20 µM
[27]; [47]
  Kd: ≥ 20 µM
[28]; [47]
  Kd: ≥ 20 µM

## KPPKFRAFR
[29]; source organism: Vaccinia virus
  IC50: ≥ 169 µM

## RAYWIHLMM
[30]; [48]
  Kd: 0.0022 µM
[31]; source organism: Mycobacterium tuberculosis str. Haarlem
  Kd: 0.165 µM
[28]; [48]
  Kd: 0.0957 µM
[32]; source organism: Mycobacterium tuberculosis C
  Kd: 0.002 µM

## FLSDYGPQL
[32]; source organism: Mycobacterium tuberculosis variant bovis BCG str. Pasteur 1173P2
  Kd: 0.233 µM

## IKRTLAAMP
[29]; source organism: Zaire ebolavirus
  IC50: ≥ 151 µM

## YATQTVGPW
[1]; [45]
  Kd: 0.0279 µM
[2]; [45]
  Kd: 0.605 µM
[3]; [45]
  Kd: 0.0168 µM

## IEEVMNIVL
[14]; [49]
  Kd: ≥ 20 µM
[15]; [49]
  Kd: ≥ 20 µM
[16]; [49]
  Kd: ≥ 20 µM
[17]; [49]
  Kd: ≥ 20 µM
[19]; [49]
  Kd: ≥ 20 µM
[21]; [49]
  Kd: ≥ 20 µM
[23]; [49]
  Kd: ≥ 20 µM
[24]; [49]
  Kd: ≥ 20 µM
[25]; [49]
  Kd: 0.946 µM
[27]; [49]
  Kd: ≥ 20 µM
[33]
  Kd: ≥ 20 µM
[34]
  Kd: ≥ 20 µM
[31]; [49]
  Kd: ≥ 20 µM
[28]; [49]
  Kd: ≥ 20 µM

## VSSWEEVPYL
[35]; [50]
  Kd: 12.4 µM
[2]; [50]
  Kd: 0.384 µM
[3]; [50]
  Kd: 0.256 µM

## LSSRAKLALD
[2]; [45]
  Kd: 7.42 µM
[3]; [45]
  Kd: 0.362 µM

## LTSREVLLLT
[2]; [50]
  Kd: 0.712 µM
[3]; [50]
  Kd: 0.409 µM

## VTARWLWGF
[35]; [51]
  Kd: 4 µM
[36]
  Kd: 0.134 µM
[37]
  Kd: 0.152 µM
[38]
  Kd: 7.07 µM
[2]; [51]
  Kd: 0.0016 µM
[3]; [51]
  Kd: 0.038 µM

## IASSGMLWMA
[2]; [52]
  Kd: 10.4 µM
[3]; [52]
  Kd: 1.02 µM

## MVIFFMSPK
[39]
  Kd: ≥ 5 µM
[40]
  Kd: ≥ 5 µM
[41]
  Kd: ≥ 5 µM

## KSFGRISVL
[30]; [53]
  Kd: 0.0008 µM
[31]; [46]
  Kd: 0.316 µM
[28]; [53]
  Kd: 0.0176 µM
[32]; [46]
  Kd: ≤ 0.001 µM

## FRGRGVFEL
[25]; source organism: Influenza A virus (A/Moscow/10/1999(H3N2))
  Kd: 0.0621 µM

## PTSYLDVDLH
[2]; [52]
  Kd: ≥ 37.4 µM

## NTFKFGVIY
[14]; source organism: Danio rerio
  Kd: 0.52 µM
[32]; [54]
  Kd: ≤ 0.001 µM
[42]
  Kd: ≥ 20 µM
[43]
  Kd: ≥ 20 µM
[11]; [54]
  Kd: ≥ 20 µM
[12]; [54]
  Kd: ≥ 20 µM
